# The supplement of paper PMC9112550, “Optimization of the antimicrobial peptide Bac7 by deep mutational scanning” (BMC Biology, 2022)
# Tested on: Escherichia coli TOP10
# Assay: shrunken log2 fold change of peptide-encoding DNA abundance (4.5 h post-induction vs induction); higher = less antimicrobial activity (less host growth inhibition)
# Conditions: time post-induction: 4.5 h; library: site-saturation at positions 5, 18, 19, 20
# 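Further: peptides expressed intracellularly from a pBAD plasmid library in pooled LB shake-flask culture, induced with 0.3% L-arabinose, DNA abundance read by NGS, three biological replicates, DESeq2 with apeglm shrinkage.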
row,Sequence,shrunken log2 fold change
1,RRIRFRPPRLPRPRPRPWPFPRP,-0.455
2,RRIRSRPPRLPRPRPRPEEMPRP,-0.0122
3,RRIRYRPPRLPRPRPRPMINPRP,-1.18
4,RRIRQRPPRLPRPRPRPRWNPRP,-0.0799
5,RRIRQRPPRLPRPRPRPAIVPRP,-0.0943
6,RRIRRRPPRLPRPRPRPLKQPRP,0.223
7,RRIRKRPPRLPRPRPRPMDSPRP,-0.0874
8,RRIRPRPPRLPRPRPRPAHMPRP,-0.0534
9,RRIRWRPPRLPRPRPRPPEYPRP,0.539
10,RRIRDRPPRLPRPRPRPANPPRP,0.234
11,RRIRCRPPRLPRPRPRPGEEPRP,0.135
12,RRIRFRPPRLPRPRPRPCFPPRP,-0.407
13,RRIRTRPPRLPRPRPRPSACPRP,-0.277
14,RRIRCRPPRLPRPRPRPMKKPRP,0.0602
15,RRIRWRPPRLPRPRPRPPTTPRP,0.277
16,RRIRCRPPRLPRPRPRPGDEPRP,0.105
17,RRIRTRPPRLPRPRPRPDRIPRP,0.00097
18,RRIRYRPPRLPRPRPRPFMRPRP,-0.499
19,RRIRMRPPRLPRPRPRPYKRPRP,-0.0368
20,RRIRWRPPRLPRPRPRPFYWPRP,-0.151
21,RRIRERPPRLPRPRPRPICNPRP,-1.25
22,RRIRERPPRLPRPRPRPSNVPRP,-0.441
23,RRIRARPPRLPRPRPRPFCCPRP,0.206
24,RRIRQRPPRLPRPRPRPWDRPRP,-0.127
25,RRIRERPPRLPRPRPRPESLPRP,0.0354

row,Sequence,shrunken log2 fold change
1,RRIRQRPPRLPRPRPRPAPVPRP,1.06
2,RRIRDRPPRLPRPRPRPNMVPRP,0.136
3,RRIRRRPPRLPRPRPRPGLHPRP,0.0196
4,RRIRHRPPRLPRPRPRPDARPRP,0.133
5,RRIRPRPPRLPRPRPRPSHCPRP,-0.666
6,RRIRNRPPRLPRPRPRPFVPPRP,-0.263
7,RRIRNRPPRLPRPRPRPRRSPRP,0.428
8,RRIRWRPPRLPRPRPRPSRNPRP,-0.0585
9,RRIRDRPPRLPRPRPRPVVGPRP,0.642
10,RRIRARPPRLPRPRPRPNNFPRP,-0.236
11,RRIRTRPPRLPRPRPRPNACPRP,-0.0597
12,RRIRERPPRLPRPRPRPKIMPRP,-1.24
13,RRIRFRPPRLPRPRPRPDTEPRP,-0.776
14,RRIRARPPRLPRPRPRPTIRPRP,0.109
15,RRIRGRPPRLPRPRPRPEDQPRP,0.0373
16,RRIRCRPPRLPRPRPRPGEWPRP,0.393
17,RRIRMRPPRLPRPRPRPWSKPRP,0.0409
18,RRIRLRPPRLPRPRPRPPNCPRP,-0.0466
19,RRIRERPPRLPRPRPRPCSKPRP,0.2
20,RRIRDRPPRLPRPRPRPRSGPRP,0.276
21,RRIRVRPPRLPRPRPRPTNLPRP,0.0684
22,RRIRFRPPRLPRPRPRPECVPRP,0.0137
23,RRIRARPPRLPRPRPRPGHGPRP,0.377
24,RRIRFRPPRLPRPRPRPANLPRP,-0.296
25,RRIRLRPPRLPRPRPRPGCAPRP,0.444

row,Sequence,shrunken log2 fold change
1,RRIRSRPPRLPRPRPRPTRTPRP,0.386
2,RRIRQRPPRLPRPRPRPLECPRP,-0.184
3,RRIRSRPPRLPRPRPRPLCMPRP,-0.242
4,RRIRFRPPRLPRPRPRPSIQPRP,-0.0528
5,RRIRNRPPRLPRPRPRPGTMPRP,0.0148
6,RRIRIRPPRLPRPRPRPETAPRP,0.0478
7,RRIRYRPPRLPRPRPRPCSHPRP,-0.566
8,RRIRSRPPRLPRPRPRPDVAPRP,0.407
9,RRIRERPPRLPRPRPRPNCFPRP,-0.195
10,RRIRRRPPRLPRPRPRPQCYPRP,-0.136
11,RRIRSRPPRLPRPRPRPKCMPRP,-0.218
12,RRIRTRPPRLPRPRPRPCHVPRP,-0.114
13,RRIRCRPPRLPRPRPRPPIVPRP,-0.089
14,RRIRLRPPRLPRPRPRPTCTPRP,-0.0583
15,RRIRKRPPRLPRPRPRPHYPPRP,-0.16
16,RRIRRRPPRLPRPRPRPRNYPRP,0.143
17,RRIRGRPPRLPRPRPRPELDPRP,0.807
18,RRIRKRPPRLPRPRPRPVRKPRP,0.0395
19,RRIRKRPPRLPRPRPRPEECPRP,0.00489
20,RRIRIRPPRLPRPRPRPQLSPRP,-0.565
21,RRIRSRPPRLPRPRPRPCQMPRP,0.0312
22,RRIRDRPPRLPRPRPRPHKPPRP,-0.000627
23,RRIRWRPPRLPRPRPRPQYWPRP,-0.184
24,RRIRERPPRLPRPRPRPVVFPRP,-0.0884
25,RRIRQRPPRLPRPRPRPRDQPRP,-0.0332
